# Assay: soluble on expression in E. coli; label from the status in PepcDB or PDB records
row,Sequence,soluble on expression in E. coli
1,MKYIDCAVIGAGPAGLNASLVLGRARKQIALFDNNTNRNRVTQNSHGFITRDGIKPEEFKEIGLNEVMKYPSVHYYEKTVVMITKQSTGLFEIVTKDHTKYLAERVLLATGMQEEFPSIPNVREYYGKSLFSCPYCDGWELKDQPLIIISENEDHTLHMTKLVYNWSTDLVIATNGNELSQTIMDELSNKNIPVITESIRTLQGEGGYLKKVEFHSGLRIERAGGFIVPTFFRPNQFIEQLGCELQSNGTFVIDDFGRTSEKNIYLAGETTTQGPSSLIIAASQGNKAAIAINSDITDERF,soluble
2,MGSDKIHHHHHHMNIIGFSKALFSTWIYYSPERILFDAGEGVSTTLGSKVYAFKYVFLTHGHVDHIAGLWGVVNIRNNGMGDREKPLDVFYPEGNRAVEEYTEFIKRANPDLRFSFNVHPLKEGERVFLRNAGGFKRYVQPFRTKHVSSEVSFGYHIFEVRRKLKKEFQGLDSKEISRLVKEKGRDFVTEEYHKKVLTISGDSLALDPEEIRGTELLIHECTFLDARDRRYKNHAAIDEVMESVKAAGVKKVILYHISTRYIRQLKSVIKKYREEMPDVEILYMDPRKVFEM,not soluble
3,MGSDKIHHHHHHMKWTTPADLKAQVRKLWDRGLLLASLAGGEALFPRRLTLKSPDSRGLSERFPEVREWIAQLCSAAGFYRIEWRSVNHRVLGANEIPAAIWIDTLEEALGLIGKRRAADQFATLVELTRKKQPELVPWLAKRPLRALELSEDWPRLLEIVTWVLKHPRPAIYLRQIDLPGVHTKFIEGHRGVLAELLDLVLPGEAIDATHTGIGGFCRRYGFLDKPLRVRFRVLDRNIRLPAVESDQDITLTQASFASLDLPASKVFITENEINFLAFPDVPDAMVIFGAGYGFDNLAAAPWLHQRGIYYWGDIDTHGFAILNQLRGFFPHAVSFLMDLQTLLAHRSLWGVEKQPETGTLARLNSEESALYDQLRRNHWGERVRLEQERIGFGFLHDVLRRL,not soluble
4,MGSDKIHHHHHHLSIIEQYLSQAEALFQSKNYSSARMYARKVIKRDDKHLGALSLLGQIHLQQQQYNEAENYFATAAAVDPNAMPVLTGLLAIAEVKQDFFLAKTYLLQLINTQGNVETYQYKLGLVATKVGDMALAEQCFEWCVANDFSEPAVQLNLGHIYKAKGDTEKAANFYHQYNQLSPKQVGVGYWSLADLKQYRFSTDDLTLLQVFATDESLSKQNQALVYFALCKAYEQTQQIDKASESMLLANKIMTLHRPFKQAQFANIVLSLLGHTPSPHIDSLPTASQTPIFIVGMPRSGTTLVEQILACHTDVGATDELPFMERFALQMDMSGGYNARLSQLSASHIDQFRQRYLAEVNHYFSDAPTYVIDKNPNNFLHIGLIKTLFPQAKIINVVRNTVDNGLSVFKQFFSFGHDYSYSFAGISSYWQHYLDIMQHWDRLYPNEILHVCFEQLVREPESQIQRILDYCELTTQAQCFTFYESERAVLTPSASQVRQPMNLKAIGQADKYQAFIPEQIAELDAIAKKAALQFFG,not soluble
5,QGVDQSPKPLIIGPEEDYDPGYFNNESDIIFQDLEKLKSRPAHLGVFLRYIFSQADPSPLLFYLCAEVYQQASPKDSRSLGKDIWNIFLEKNAPLRVKIPEMLQAEIDSRLRNSEDARGVLCEAQEAAMPEIQEQIHDYRTKRTLGLGSLYGENDLLDLDGDPLRERQVAEKQLAALGDILSAYAADRSAPMDFALNTYMSHAGIRLREA,soluble
6,MKWILLPILFVTLAVSGTALAQPSPTETVKKTVDDVIKIVSDKELKKPQNEKRRRQEIKRAIGTVFDSAEMAQRAMARHWRDRNAAEKKEFVDLFENLLENSYAGKIESYNQEKVVYLKEAIDGDYAEVRSKIVTARRDEYSLDYRLMLKGGKWVVYDIVIEGVSLVSNYRTQFNKIITNQGYAELVKKLRSKNKEISMPLEHHHHHH,soluble
7,MSLSIKLIAVDIDGTLVNSQKEITPEVFSAIQDAKEAGVKVVIATGRPIAGVAKLLDDLQLRDQGDYVVTFNGALVQETATGHEIISESLTYEDYLDMEFLSRKLGVHMHAITKDGIYTANRNIGKYTVHESTLVSMPIFYRTPEEMAGKEIVKCMFIDEPEILDAAIEKIPAEFYERYSINKSAPFYLELLTKNVDKGSAITHLAEKLGLTKDETMAIGDEENDRAMLEVVGNPVVMENGNPEIKKIAKYITKTNDESGVAHAIRTWVLEGHHHHHH,soluble
8,MSLVMDSLIIKQLIKSTFDIPLQVTYPNGNIETYNGSNPHVKLKLNKNFSVSELSKDPSIVLGEAVMDGDIEIYGSIQELILSAYRCGDSFLRNSKFSKLIPKQFHDKKHSKSDIQKHYDIGNDFYKLWLDDTMTYSCAYFKHENDSLEQAQLNKVHHILNKLNAQPGGKLLDIGCGWGTLIITAAKEYGLNATGITLSEEQASFITKRIKEEGLENKVTVLIKDYRDIRETYDYITSVGMFEHVGKENLSQYFQTISKRLNINGLALIHGITGQVGGNHGSGTNSWINKYIFPGGYIPRLTENLNHIASAGLQIADLEPLRRHYQKTLELWTKNFHNALPEVQKTHDKRFINMWDLYLQSCAASFESGNIDIFQYLLSKGVSKDTMPMTRDYMYSANEGHHHHHH,soluble
9,MFIKAERLLIRKFEFKDWEAVHEYTSDSDVMKYIPEGVFTEEDTRNFVNKNMGENAKNFPVILIGENILVGHIVFHKYFGEHTYEIGWVFNPKYFNKGYASEAAQATLKYGFKEMKLHRIIATCQPENTPSYRVMEKIGMRREGYFKKCIPHGNEWWDEYYYAILEEE,soluble
10,MKYPTIIDSQQLFREPDHPLKAGLDPKCRSTKPLCPDTFAKVMKTIDTFIFDADGVLWLGESVMPGSPRLIDYLVKHNKQIIVLTNNATKSRAVYAKKLAKLGYNSSKMNKNNLVNPAAVVADTLHRAGLDGKRVYLIGEQGLRDEMDELGIEYFGHGPEKKQDEADGSGAFMYDIKLEENVGAVVVGYEKHFDYIKMMKASNYLREEGVLFVATNEDETCPGPNPEVVIPDAGPIVAAIKCASGRDPLTVGKPCTPAFNYIKRKWNINPSRTMMIGDRTNTDVKFGRDHGMKTLLVLSGCHQIEDIIENQMNERDDMVPDYVAPCLGALVPERI,not soluble
11,MAVAYEGQLTGHRGWVTSLACPQTPETATKVVSTSRDKTLLSWGPNPDRHSSECSYGLPDRRLEGHSAFVSDVALSNNGNFAVSASWDHSLRLWNLQNGQCQYKFLGHTKDVLSVAFSPDNRQIVSGGRDNALRVWNVKGECMHTLSRGAHTDWVSCVRFSPSLDAPVIVSGGWDNLVKVWDLATGRLVTDLKGHTNYVTSVTVSPDGSLCASSDKDGVARLWDLTKGEALSEMAAGAPINQICFSPNRYWMCAATEKGIRIFDLENKDIIVELAPEHQGSKKIVPECVSIAWSADGSTLYSGYTDNVIRVWGVSENA,not soluble
12,MSLKLNTSNSPFTEKQVTEINNLLQTLTESQQQWLSGFLLANSNDTTSDSNQQQLETEVWQQSQISEEQATSTTYMLQNKEPHIEANQRHVTVLYGSESGNAMRLAEIFSERLSDIGHQVVLMSMDEYDTTNIAQLEDLFIITSTHGEGEPPDNAWDFFEFLEDDNAPNLNHVRYSVLALGDQTYEFFCQAGKDVDALLENLGAERICKRVDCDIDYEEDAEKWMADIINMIDTTSEGIQSESVISESIKSAKEKKYSKLNPYQAEVLANINLNGTDSNKETRHIEFLLDDFSESYEPGDCIVALPQNDPELVEKLISMLGWDPQSPVPINDRGDTVPIVEALTSHFEFTKLTLPLLKNADIYFDNEELSERIQDESWAREYVINRDFIDLITDFPTIELQPENMYQILRKLPPREYSISSSFMATPDEVHITVGTVRYQAHGRERKGVCSVHFAERIKPGDIVPIYLKKNPNFKFPMKQDIPVIMIGPGTGIAPFRAYLQEREELGMTGKTWLFFGDQHRSSDFLYEEEIEEWLENGNLTRVDLAFSRDQEHKEYVQHRIMEESERFNEWIEQGAAIYICGDEKCMAKDVHQAIKDVLVKERHISQEEAELLLRQMKQQQRYQRDVYEGHHHHHH,soluble
13,MRGFLMFTSGPFDIDFVVLWVDGSDEKWLQKRAIYSSTKQQNNAVRFRDYGIFKYWFRAVAKYAPWVHHVYLVTDEQIPNWLSIQNSKVSVIDHKSIMPEDALPTFNSSAIELNIANIPGLSEHFVYFNDDMFLNRQVTPMDFFSEDGLPKDSAVQNAIMPVEDFDHMTANNVMLINQNFNKYQVLRRHPFRFFNFRYGFLNVLSICLLPWPRFTRFQDPHVPISFRKSVFEKVLNLHRDAWNETSHNRFRNRNDNTIWLIRYYQLVTAQFNPRTPFVGKKYNIGEMKKIVNDINTGKHKMICINDQNVSMAEFDNLTKQLRSTFRSKLPQKSEFEKMAGDPLEHHHHHH,not soluble
14,MSLVYMAINAVAGTIREFSPKDIESVYRIAQTSLTEYYTQALILDLHREWPESFMVYTVAGSVVGFIVGSKYSRTEARILLFAVDERFRRMGVGSALMDAFLSLCREQNMLSVRLEVRTDNDEAIRFYKKYGFVITAMLPNYYSDSSNAYTMWRIVEGHHHHHH,not soluble
15,MGSDKIHHHHHHVSATDTLDKTGTQTSAVRLGDLETPCLVLDADRMDRNIARLRDRIAGLGVTLRPHLKTAKSVEVARRVMATSEGPATVSTLKEAEFFADAGVRDIIYAVGIAPWKLAKVIELRKRGVDLAVVLDTVELAQAVAAASRESGMAIPALIEIDCDGHRSGVLPRDSERLLAIGKALVEGGELRGVLTHAGGSYAARGEEALRNAAEEERASVVNAAAILRDAGLPCPVVSVGSTPTAHHATDLTGVTEVRAGVFVFFDLVMTGIGICTVDDIAISVLATVIGHQREKGWILVDAGWMAMSQDRGTAKQVVNQGYGVVCKCDGTPYADLILADANQEHGIIMVRPGSDGTLPDLAIGDRVRILPNHACATGAQHRRYNVVHGTSDVVTGEWQRFGGW,not soluble
16,MTEEILKQGVGIVETSLTFEPPFCESFERISIDNFPIFALGKEISKEDGIEAMKKYVTSRFWFTYRRDFSPIGGTGPSTDQGWGCMLRCAQMLLGEVLLRRHIGRHFEWDIEKTSEIYEKILQMFFDEKDALYSIHQIAQMGVTEGKEVSKWFGPNTAAQVMKKLTIFDDWSNIAVHVALDNILVKEDAITMATSYPSEDAVKLIMGKKGLQTTKRKNRKNLDFTVKYLKQIKFFKFFNLFQIFYENGLVDKNRLSLSPGNIIPEWRPLLLMIPLRLGLTTINPCYLSAIQEFFKIPQCVGIIGGRPNHALYFVGMSGSKLFYLDPHYCRPKTESTAKMYAEKDSTATTDDVGFSHLEELVPLPSQTADVYTKMDDSTYHCQMMLWIEYENVDPSLALAMFCETRDEFENLCETLQKTTLPASQPPMFEFLQRRPKYLPKFEPYTGVSMKIEMKEFDDIGAANVKIDDDFEVLDVHTEEEDADEDNDDDVANA,not soluble
17,SLKIKQIVKPGLAVLAAGVLSACATKSNVKADGTTDNPVFPKPYSVTLDNNRGTFPTYDELDLMRPGLTKDDIYKILGRPHYDEGMYGVREWDYLFHFHTPGVGIDPENTSGVEGITTCQYKIIFDKDKFARSFYWNPVFPKDAACPPPAPKAEPQVIIREIVPAKPKRIRQ,soluble
18,MAIKSVLFLRSNPVAPDPRVAKEAQALADAGYKVGVVAWDRTGELPKVEETPFGLVERLPIKGSFRSGLANLLPLVRFNLALLWHLIKRRSTYDAIHACDFDTVLPALVAAKLLGKKVVYDVFDFYADMLRATPGWIKSIIKKVDLRLMGWVDAVILADESRVKQIQGARPKRLTFIYNSPPIEDPFPLPPAPPPLRIAYVGLLQKERGILQVIELLRRHPEWELDLGGFGGDEEEIRRAVADLPNVRYHGRVPYEKALELMSNAHLLFATYDPSIPNHRYSSANKLFEAMAIGRPIVVARDTGMDQLVQQYALGFVVEYGNLAALEDAFARVASWDLQRFEEFSQKAQEVYVTRFAWRIMKERLIALYRKLEE,soluble
